This is an account of results in US20210261677A1 (ORICELL THERAPEUTICS, published 2021).

Where two headings read alike, the source gives them in different places.

The target in experiment [1] is T1, recombinant dog PD-L1-Fc (70110-DO2H, Sino Biological Inc.) (dog, UniProt E2RKZ5 19-236, Biotinylated on lysines/amines (EZ-Link Sulfo-NHS-LC-Biotin); positions not defined).
T1 construct: Bought; also called Dog PD-L1-Fc-Biotin; canine PD-L1; not shown: Fc part and any linker of the bought fusion (Sino Biological 70110-DO2H)
T1 sequence: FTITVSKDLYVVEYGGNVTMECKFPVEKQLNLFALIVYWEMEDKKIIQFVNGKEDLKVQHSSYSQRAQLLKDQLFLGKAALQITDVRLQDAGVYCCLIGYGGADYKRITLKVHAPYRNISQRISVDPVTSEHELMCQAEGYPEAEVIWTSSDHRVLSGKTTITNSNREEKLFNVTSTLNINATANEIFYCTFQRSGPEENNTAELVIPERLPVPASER
Description: BLI (Octet RED384), biotinylated antigen on SA sensor, antibody in solution. Here is the method:
(§1) The antigen-antibody binding kinetics were analyzed by a biofilm interference (BLI) technology, using a molecular interaction analyzer (Octet RED384, purchased from Pall ForteBio Analytics Co., Ltd.) and using a PBS buffer containing 0.1% BSA and 0.02% Tween 20. A biotin-coupled antigen protein with a concentration of 50 nM was fixed with the SA sensor (Pall ForteBio Analytics Co., Ltd.), and bound at 1500 rpm for 10 minutes; then it was bound with the double-diluted antibody solution at 1500 rpm for 10 minutes; and finally dissociated at 1500 rpm for 10 minutes. The obtained results would be analyzed by Octet Data Analysis 9.0 software (Pall ForteBio Analytics Co., Ltd.) to give the KD, Kₒₙ (1/Ms) and Koff (1/s).
For orientation: In BLI a coated tip is dipped into the sample, and binding shifts an interference pattern.

Experiment [2] concerns the target T2, recombinant human PD-L1-Fc protein (Origincell Therapeutics Co., Ltd.) (human, UniProt Q9NZQ7 19-238, limits assumed).
T2 construct: Labeled with biotin (EZ-Link Sulfo-NHS-LC-Biotin) for the BLI assays; unlabeled in the phage ELISA; also called Human PD-L1-Fc-Biotin; not shown: Fc part
Described as above. As for the experimental part: as §1

Experiment [3] deals with T3, recombinant Macaca fascicularis PD-L1-Fc (90251-CO2H, Sino Biological Inc.) (Macaca fascicularis, UniProt G7PSE7 19-239).
T3 construct: Bought; also called Macaca Fascicularis PD-L1-Fc-Biotin; not shown: Fc part
Described as above. Here is the method: as §1

In experiment [4] the target is T4, recombinant mouse PD-L1-Fc protein (M5251, ACROBiosystems Inc.) (mouse, UniProt Q9EP73 19-238).
T4 construct: Bought; Labeled with biotin for the BLI assays; unlabeled in the phage ELISA; also called Mouse PD-L1-Fc-Biotin; not shown: Fc part
The experiment is described as above. As for the experimental part:
as §1

The target in experiment [5] is T5, mouse PD-L1 on CHO cells that stably expressed mouse PD-L1 (mouse, UniProt Q9EP73 19-290).
T5 construct: whole, on cells; also called CHO cells expressing mouse PD-L1
Description: flow cytometry competition: biotin-labelled mouse PD-1-Fc at a subsaturated concentration on CHO cells stably expressing mouse PD-L1, antibody titrated, streptavidin R-PE detection. As for the experimental part:
After cell washing, Streptavidin R-PE Conjugate (life technology, SA10041) was added and incubated (4° C., 30 min). After cell washing, the fluorescence intensity was detected by flow cytometer (Intellicyt iQue Screener).
In general terms: In flow cytometry, cells or beads pass a laser one at a time.

Experiment [6] has as its target T6, human PD-L1 on cells (CHO cells that stably expressed human PD-L1; MDA-MB-231 cells) (human, UniProt Q9NZQ7 19-290).
T6 construct: whole, on cells; Stably expressed on CHO cells; also called CHO cells expressing human PD-L1
Nature of the experiment: flow cytometry competition: biotin-labelled human PD-1-Fc at a subsaturated concentration on CHO cells stably expressing human PD-L1, antibody titrated, streptavidin R-PE detection. As for the experimental part: (§2) After cell washing, Streptavidin R-PE Conjugate (life technology, SA10041) was added and incubated (4° C., 30 min). After cell washing, the fluorescence intensity was detected by a flow cytometer (Intellicyt iQue Screener).

Experiment [7] concerns the target T6, human PD-L1 on cells (CHO cells that …). The experiment is described as above. Here is the method: as §2
The source holds these as a separate data set.

Experiment [8] shares this target. Nature of the experiment: flow cytometry on CHO cells stably expressing human PD-L1, anti-human IgG-Fc DyLight 650 detection. As for the experimental part:
The mixture was mixed well and incubated at 4° C. for 1 hr. After cell washing, Goat F(ab)₂ Anti-Human IgG-Fc (DyLight 650) (ab98593, Abcam) was added and incubated at 4° C. for 30 min. After cell washing, the fluorescence intensity was detected by a flow cytometer (Intellicyt iQue Screener).

The target is the same in experiment [9]. Described as above. As for the experimental part:
After cell washing, Goat F(ab′)₂ Anti-Human IgG-Fc (DyLight 650) (ab98593, abcam) was added and incubated at 4° C. for 30 min. After cell washing, the fluorescence intensity was detected by a flow cytometer (Intellicyt iQue Screener).
The source holds these as a separate data set.

In experiment [10] the target is T5, mouse PD-L1 on CHO cells that stably …. Description: flow cytometry competition: biotin-labelled mouse PD-1-Fc at a subsaturated concentration on CHO cells stably expressing mouse PD-L1, antibody titrated, streptavidin R-PE detection. As for the experimental part: as §2
The source holds these as a separate data set.

Experiment [11] deals with T7, recombinant human PD-L1-His protein (Origincell Therapeutics Co., Ltd.) (human, UniProt Q9NZQ7 19-238, limits assumed).
T7 construct: not shown: His tag
Nature of the experiment: BLI (Octet RED384), antibody on AHC sensor, PD-L1-His in solution.

For experiment [12], the target named is T5, mouse PD-L1 on CHO cells that stably …. Description: flow cytometry on CHO cells stably expressing mouse PD-L1, anti-human IgG-Fc DyLight 650 detection. As for the experimental part:
The mixture was mixed well and incubated at 4° C. for 1 hr. After cell washing, Goat F(ab′)₂ Anti-Human IgG-Fc (DyLight 650) (ab98593) was added and incubated at 4° C. for 30 min. After cell washing, the fluorescence intensity was detected by a flow cytometer (Intellicyt iQue Screener).

Experiment [13] shares this target. Nature of the experiment: flow cytometry competition: biotin-labelled mouse PD-1-Fc at a subsaturated concentration on CHO cells stably expressing mouse PD-L1, antibody titrated, streptavidin R-PE detection. As for the experimental part: as §2
This is another data set of the same source.

Experiment [14] has as its target T6, human PD-L1 on cells (CHO cells that …). Nature of the experiment: flow cytometry on MDA-MB-231 cells (human PD-L1), anti-human IgG-Fc DyLight 650 detection. As for the experimental part: Human breast cell strain MDA-MB-231 (Shanghai Chinese Academy of Sciences Cell Library) highly expresses the human PD-L1 molecule. […] After cell washing, Goat F(ab′)₂ Anti-Human IgG-Fc (DyLight 650) (ab98593, abcam) was added and incubated at 4° C. for 30 min. After cell washing, the fluorescence intensity was detected by a flow cytometer (Intellicyt iQue Screener).

T5 sequence (Q9EP73 19-290): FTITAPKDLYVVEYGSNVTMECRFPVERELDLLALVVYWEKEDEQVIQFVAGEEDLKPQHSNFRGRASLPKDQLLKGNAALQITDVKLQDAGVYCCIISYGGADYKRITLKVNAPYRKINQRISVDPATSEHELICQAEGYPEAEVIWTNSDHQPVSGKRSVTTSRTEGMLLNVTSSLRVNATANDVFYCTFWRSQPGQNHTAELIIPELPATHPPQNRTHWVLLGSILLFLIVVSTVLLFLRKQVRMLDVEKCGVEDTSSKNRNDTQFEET
T4 sequence (Q9EP73 19-238 limits assumed): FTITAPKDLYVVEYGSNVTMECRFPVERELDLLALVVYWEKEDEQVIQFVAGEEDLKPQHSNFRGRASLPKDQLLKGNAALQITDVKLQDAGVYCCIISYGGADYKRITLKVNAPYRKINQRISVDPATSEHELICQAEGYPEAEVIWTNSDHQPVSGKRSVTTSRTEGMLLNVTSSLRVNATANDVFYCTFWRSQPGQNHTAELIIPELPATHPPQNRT
T2 sequence (Q9NZQ7 19-238 limits assumed): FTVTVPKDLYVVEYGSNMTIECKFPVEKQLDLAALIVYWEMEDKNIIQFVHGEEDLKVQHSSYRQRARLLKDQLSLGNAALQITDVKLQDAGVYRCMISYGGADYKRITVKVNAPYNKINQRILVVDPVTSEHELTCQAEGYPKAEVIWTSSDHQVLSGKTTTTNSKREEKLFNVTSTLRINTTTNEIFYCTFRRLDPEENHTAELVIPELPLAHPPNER
T7 sequence (Q9NZQ7 19-238 limits assumed): as above
T6 sequence (Q9NZQ7 19-290): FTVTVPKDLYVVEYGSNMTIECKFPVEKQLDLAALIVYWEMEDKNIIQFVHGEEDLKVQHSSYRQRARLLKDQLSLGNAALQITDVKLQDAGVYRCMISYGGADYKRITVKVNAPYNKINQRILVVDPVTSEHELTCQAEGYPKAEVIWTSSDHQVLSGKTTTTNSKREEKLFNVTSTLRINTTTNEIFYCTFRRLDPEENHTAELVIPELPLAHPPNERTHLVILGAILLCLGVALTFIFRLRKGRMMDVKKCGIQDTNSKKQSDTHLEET
T3 sequence (G7PSE7 entry or part of it): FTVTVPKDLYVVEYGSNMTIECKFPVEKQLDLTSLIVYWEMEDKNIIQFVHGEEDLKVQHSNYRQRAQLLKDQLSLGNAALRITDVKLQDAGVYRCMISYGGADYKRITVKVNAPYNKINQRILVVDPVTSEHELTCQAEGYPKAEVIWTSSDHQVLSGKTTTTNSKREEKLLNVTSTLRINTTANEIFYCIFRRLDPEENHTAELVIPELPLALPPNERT

B1: anti-PD-L1 fully human antibody YN-002 (antibody, human IgG1, lambda, V domains shown)
VH: QVQLVQSGAEVRKPGSSVKVSCKASGGTFSSYAISWVRQAPGQGLEWMGRIIPILGIANYAQKFQGRVTITADKSTSTAYMELSSLRSEDTAVYYCARTMDGYSYGNFDYWGQGTLVTVSS
VL: QSALTQPASVSGSPGQSITISCTGTSSDVGGYNYVSWYQQHPGKAPKLLIYGNSNRPSGVPDRFSGSKSGTSASLAITGLQAEDEADYYCQSYDSSLSGSVFGGGTKLTVLG
notes: Intact IgG1,lambda antibody of phage antibody 1B10, expressed in 293F cells
One may read the Kd as the concentration at which binding is half-saturated. The term koff denotes a measure of how fast the partners let go of each other. What is called kon is the second-order rate constant of association. Turning to B1, the Kd in experiment [1] amounted to 0.743 nM; in experiment [2], 0.888 nM; in [3], 1.07 nM; in experiment [4], 1.72 nM. Also, the off-rate (koff) in experiment [1] worked out at 0.000759 s⁻¹; in experiment [2], 0.000594 s⁻¹; in experiment [3], 0.0019 s⁻¹; in experiment [4], 0.00168 s⁻¹. The on-rate (kon) is 1.02e+06 M⁻¹ s⁻¹ in experiment [1], 669000 M⁻¹ s⁻¹ in [2], 1.77e+06 M⁻¹ s⁻¹ in experiment [3] and 977000 M⁻¹ s⁻¹ in experiment [4]. Besides, the figures for the “IC50 (read off the curve)” value in experiment [5] and in experiment [6] were ~0.1 µg/mL and ~1 µg/mL, respectively.

B2: PD-L1 antibody YN-036 (antibody, human IgG1, lambda, V domains shown)
VH: QVQLVQSGAEVKKPGSSVKVSCKASRGPFSTYAISWVRQAPGQGLEWMGRIIPILGIANYAQKFQGRVTITADKSTSTAYMELSSLRSEDTAVYYCARTMGEYSYGNYDYWGQGTLVTVSS
VL: QSALTQPASVSGSPGQSITISCTGTVSEVGGYNEVSWYQQHPGKAPKLMIYGNSNRPSGVSNRFSGSKSGNTASLTISGLQAEDEADYYCQSYDSSLSGTVFGGGTKLTVLG
notes: full-length IgG1,lambda
Broadly, the EC50 (read off the curve) is the concentration needed to bring the measured effect to its halfway point. Low readings indicate an effect from little substance, high ones a need for much substance. With B2, the “IC50 (read off the curve)” value in [7] was ~2 nM; in [6] it was ~3 nM; in experiment [10] it was ~5 nM; in [13] it was ~2 nM. Moreover, the “EC50 (read off the curve)” value was 3 to 4 nM in [8], ~4 nM in experiment [9], ~4 nM in experiment [12] and ~1 nM in experiment [14]. Moreover, the Kd in experiment [11] is 0.474 nM. In addition, the koff in [11] came out at 0.000175 s⁻¹. In addition, in experiment [11], the on-rate (kon) is 369000 M⁻¹ s⁻¹.

B3: anti-PD-L1 fully human antibody YN-003 (antibody, human IgG1, lambda, V domains shown)
VH: QVQLVQSGAEVKKPGSSVKVSCKASGGTFSSYAISWVRQAPGQGLEWMGRIIPILGIANYAQKFQGRVTITADKSTSTAYMELSSLRSEDTAVYYCARTMDGYSYGNFDYWGQGTLVTVSS
VL: QSALTQPASVSGSPGQSITISCTGTSSDVGGYNYVSWYQQHPGKAPKLMIYGNSNRPSGVSNRFSGSKSGNTASLTISGLQAEDEADYYCQSYDSSLSGSVFGGGTKLTVLG
notes: Germline version of YN-002; IgG1,lambda
On to B3, for which the Kd in experiment [1] was determined as 0.594 nM; in experiment [2], 0.408 nM; in experiment [3], 0.654 nM; in experiment [4] it was 0.996 nM. The dissociation rate constant (koff) is 0.000514 s⁻¹ in experiment [1], 0.000611 s⁻¹ in [2], 0.00136 s⁻¹ in experiment [3] and 0.000997 s⁻¹ in experiment [4]. The kon in [1] turned out to be 864000 M⁻¹ s⁻¹; in experiment [2] it was 1.5e+06 M⁻¹ s⁻¹; in experiment [3], 2.08e+06 M⁻¹ s⁻¹; in experiment [4], 1.03e+06 M⁻¹ s⁻¹. Moreover, the figures for the “IC50 (read off the curve)” value in experiment [5] and in experiment [6] were ~0.06 µg/mL and ~0.2 µg/mL, respectively.

B4: PD-L1 antibody YN-035 (antibody, human IgG1, lambda, V domains shown)
VH: QVQLVQSGAEVKKPGSSVKVSCKASRGPFSTYAISWVRQAPGQGLEWMGRIIPILGIANYAQKFQGRVTITADKSTSTAYMELSSLRSEDTAVYYCARTMEGYGFGNFDYWGQGTLVTVSS
VL: QSALTQPASVSGSPGQSITISCTGTVSEVGGYNEVSWYQQHPGKAPKLMIYGNSNRPSGVSNRFSGSKSGNTASLTISGLQAEDEADYYCQSYDSSLSGTVFGGGTKLTVLG
notes: full-length IgG1,lambda
B4: the “IC50 (read off the curve)” value in [7] was ~2 nM; in experiment [6] it was ~3 nM; in experiment [10], ~5 nM; in experiment [13], ~3 nM. In addition, the “EC50 (read off the curve)” value is 3 to 4 nM in experiment [8], ~4 nM in experiment [9], ~6 nM in experiment [12] and ~0.9 nM in experiment [14]. Further, in experiment [11], the Kd was determined as 0.452 nM. Moreover, the koff in experiment [11] was determined as 0.000193 s⁻¹. The kon in [11] was determined as 427000 M⁻¹ s⁻¹.
